Target: mouse Kv4.2 channel with GFP fused to the C-terminus (Kv4.2g) (mouse) (UniProt Q9Z0V2)
Assay: co-IP; anti-GFP IP (Pierce Classic Magnetic IP/Co-IP kit, overnight 4°C, lysis buffer with 20 mM NEM and protease inhibitors) from lysates (0.5 mg protein) of HEK cells expressing Kv4.2g + HA-KChIP2a + HA-DPP10c, with or without co-transfected SUMO2 + Ubc9; blot for α-adaptin, stripped and re-probed for Kv4.2g; OD α-adaptin ÷ OD Kv4.2g

Sequence of UniProt Q9Z0V2 (Q9Z0V2 whole entry, the tested form may be a part): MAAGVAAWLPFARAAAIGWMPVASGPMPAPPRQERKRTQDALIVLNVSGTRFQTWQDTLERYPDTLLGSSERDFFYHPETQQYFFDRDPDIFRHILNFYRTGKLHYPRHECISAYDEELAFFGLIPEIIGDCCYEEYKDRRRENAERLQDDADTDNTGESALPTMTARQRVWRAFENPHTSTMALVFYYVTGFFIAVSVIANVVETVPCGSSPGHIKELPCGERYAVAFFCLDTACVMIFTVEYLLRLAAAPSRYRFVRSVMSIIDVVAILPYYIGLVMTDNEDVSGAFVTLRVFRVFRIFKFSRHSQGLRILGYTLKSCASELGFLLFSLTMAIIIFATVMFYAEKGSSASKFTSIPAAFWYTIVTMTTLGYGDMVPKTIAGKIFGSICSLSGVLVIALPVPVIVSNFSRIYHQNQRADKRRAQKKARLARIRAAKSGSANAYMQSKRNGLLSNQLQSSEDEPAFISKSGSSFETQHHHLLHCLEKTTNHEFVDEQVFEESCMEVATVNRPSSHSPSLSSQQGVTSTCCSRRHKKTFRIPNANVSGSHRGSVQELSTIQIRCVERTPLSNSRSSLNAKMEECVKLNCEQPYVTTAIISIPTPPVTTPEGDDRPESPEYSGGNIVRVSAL

Work on “α-adaptin subunit of adaptor protein 2 complex (AP2) (from UniProt O95782 1-977) (natural protein)” yielded an OD α-adaptin ÷ OD Kv4.2g in the anti-GFP IP (control, without SUMO2 + Ubc9) of 0.02 and an OD α-adaptin ÷ OD Kv4.2g in the anti-GFP IP (with co-expressed SUMO2 + Ubc9) of 0.02.

From article PMC8593141
